Results taken from patent publication US20220144960A1 (NANJING LEGEND BIOTECH, published 2022).
Where two headings read alike, the source gives them in different places.

Key:
[1] = molecular target: T1, recombinant human CD30 extra cellular domain (ECD) protein (human, UniProt P28908 19-379); assay: SPR Biacore T200, scFv captured, 100.0 nM human CD30 as analyte, single curve; beyond off-rate detection limit
T1 construct: Bought from R&D systems; also called rhCD30; human CD30 ECD
T1 sequence: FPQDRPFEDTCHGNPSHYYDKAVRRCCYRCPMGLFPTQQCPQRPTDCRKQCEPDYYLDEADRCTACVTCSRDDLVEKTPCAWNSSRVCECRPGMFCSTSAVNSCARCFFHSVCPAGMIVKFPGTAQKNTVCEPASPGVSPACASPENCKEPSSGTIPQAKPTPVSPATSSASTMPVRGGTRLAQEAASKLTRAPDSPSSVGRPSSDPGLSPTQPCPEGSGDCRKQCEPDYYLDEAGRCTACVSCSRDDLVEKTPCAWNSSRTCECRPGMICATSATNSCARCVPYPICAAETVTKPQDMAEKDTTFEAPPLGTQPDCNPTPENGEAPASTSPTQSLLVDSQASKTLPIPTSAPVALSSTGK
Protocol: (§1) Some of these unique binders were subjected to for further characterization by surface plasmon resonance (SPR) on a BIAcore T200 instrument (GE Healthcare). The experiment was carried out as follows. The crude sdAb/Fab proteins were captured through an affinity tag (6×Histidine tag) onto the sensorchip. High-concentration (100.0 nM) of human CD30 (R&D systems, Cat. #6126-CD) flowed over the sensorchip surface, and were allowed to bind the antibody fragments for 300 s followed by injection of the running buffer to allow dissociation of the complex. On-rate ([…] and off-rate (kd) were roughly calculated based on one association and dissociation curve, and were used to estimate the equilibrium dissociation constant (KD). 5F11 scFv (SEQ ID NO:216, prepared according to WO2017066122) was used as a positive control. Data were summarized in Table 3 below. The first 10 antibodies in Table 3 were sdAbs with amino acid sequence ID numbers summarized in Table 1, the last antibody was 5F11 scFv, and the remainings were human Fabs with CDR and scFv amino acid sequence ID numbers in Table 2.

[2] = molecular target: T2, human CD30 CRD6 (E282-K379) Fc fusion protein with human IgG1 Fc fragment at the C terminus (human); assay: SPR, captured scFv, human IgG1 Fc-fused CRD protein as analyte
T2 construct: also called CRD6 construct
Protocol: as §1, with “2. […]” for “2.”

[3] = molecular target: T1, recombinant human CD30 extra cellular …; assay: SPR Biacore T200, scFv captured, 100.0 nM human CD30 as analyte, single curve
Protocol: as §1

[4] = molecular target: T1, recombinant human CD30 extra cellular …; assay: as above; remark: listed apart in the source
Protocol: as §1

T2 sequence (chain, as listed by the source limits assumed): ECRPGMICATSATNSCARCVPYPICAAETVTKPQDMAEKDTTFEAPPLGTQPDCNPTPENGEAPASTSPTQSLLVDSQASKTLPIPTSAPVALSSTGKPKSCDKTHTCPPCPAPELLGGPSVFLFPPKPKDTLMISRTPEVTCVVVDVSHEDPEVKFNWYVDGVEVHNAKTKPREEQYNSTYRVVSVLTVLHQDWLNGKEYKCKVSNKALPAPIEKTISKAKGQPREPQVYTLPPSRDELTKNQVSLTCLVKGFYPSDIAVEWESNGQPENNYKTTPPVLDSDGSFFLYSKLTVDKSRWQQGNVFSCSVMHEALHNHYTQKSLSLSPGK

B1: 5F11 scFv (scFv)
scFv: DIQMTQSPTSLSASVGDRVTITCRASQGISSWLTWYQQKPEKAPKSLIYAASSLQSGVPSRFSGSGSGTDFTLTISSLQPEDFATYYCQQYDSYPITFGQGTRLEIKGSTSGSGKPGSGEGSTKGQVQLQQWGAGLLKPSETLSLTCAVYGGSFSAYYWSWIRQPPGKGLEWIGDINHGGGTNYNPSLKSRVTISVDTSKNQFSLKLNSVTAADTAVYYCASLTAYWGQGSLVTVSS
notes: Positive control; captured like the other fragments, tag not spelled out for it
- koff [1]: < 1e-05 s⁻¹
- binding result [2]: binds
- Kd [3]: < 0.1 nM
- Kd [4]: < 0.0862 nM
- kon [4]: 120000 M⁻¹ s⁻¹
